From the domain aggregation screens of Martell et al. (2025)

Assay: soluble fraction after stress (log2 fold change); higher = more stays soluble; pooled small domains, quantitative proteomics
Conditions: stress: 50 degC
How it was run: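 Each library was heated to 50°C as a stress step. The libraries, made up of small protein domains, were pooled and analysed at high throughput by quantitative proteomics. The reported value is the base-two logarithm of the fold change in each protein's soluble amount after stress, taken as a measure of aggregation propensity. The higher the value, the more protein stays in solution.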

Sequence	soluble fraction (log2)
HMTSHYTVLGVKETDTIEMIRTHYRKLILQFHPDKNQHLTEEERKKLEVKVLQIREAYEKIKKEK	-0.214
HMEDTVNVPIQINGKLRHVIQVQIGTSEEEIQKIALSEEQVKKFTDGHEILKVMVPKGKLVSIVI	-0.129
HMLAFDKDDSGAVAEIILVLGRYWMDFSHKKYPAAEGVALRHKGLSHIFTVLRPYLSTPASELIGERLRR	-0.409
HMINLRTALNNAGVMQKELSDILYMTPQDVNRRFSGVTKWKPLEKRAIMQFLEDRGFEYTEEQLF	-0.532
HMPLTEMAVRKHLSAELAQKGYTIDPRALEILLQRTNTNLTAIANELPKLLLVAEDKQITVNEVSAM	-0.164
HMQETALANFETNEGVQKVKQYVQENVPSLRGSNIVGVWTSYTPEGLTNYRTRFLTQDGQFVEVNLAYQ	0.036
HMIPEGKWMEDPISEGQIKFIETLIKQAIDSGQDALGAEAKQYLSSGEATKGNASSMIDKLKDAL	0.243
HMTANPHKPEPLQIDTSDITPGVTVIHKAFGNGTVVSVDNNRILIDFDGIEKKFPFPGAFLYGFLQK	0.132
HMGQVSEAGELEVAADRVIAANPEAVTKYKSGNENILQFLVGQMMKETKGAANPQVAAEILRKKIV	0.254
HMSLQDYYQVLGVFYNAGDKEIKRRWKELINQYHPDLAQAKGASPEEIENYTLKMAEINNAYEQIMKSRKA	0.0274
HMGTDFRPVFQYVDELVRAGEFTNLKGMIYFTDGRGIFPEKKPDYDAAFVFLDDGYDPPDVPVWAIKLVL	-0.161
HMVPEEEATKISVQNVGASDYNFTVKGVQANDPTLTLVRGKTYEFDVTSLGHPFWIKTQKVTGSSSQY	0.1
HMIHMNMGQKINQLRLQKGFTLEELGNLVGVGKSTVRKWENGMIANMKRDKILLVAEALDTSPAYLMGWD	-1.54
HMGYPGLGSIGSKPLGDLLFQSKLFVKTKREFAEFKMANNNIVWGRRTQYLVRNYPLSVMEVFL	-0.0279
HMGSYANAWQLAEHAAKDMLGEVIYLLDGKEVHAGILETMSAESIKTASAENVDGKVVIRLVSK	-0.0617
HMLTLSGPEHAVVRALWPEPELDFDVLIRKTGLPSAQLMTLAMQLEMKKIIRRLPGRRLALMDDIRR	-1.85
HMKLISVAVMRASDAAEIAGGTDSKTLMYRAGLGLFQSWDWHGKIDIVTGSGNNAGDGYVLALLL	-0.0519
HMAGPGAEVVDRLIAVLTGERPATAADQVLLSILKGLGIGGVVLPSERTGLGWSGLYQRVKEITDMN	-1.29
HMLEEIIDVKRFLVENVRGVSEKTALAILSEFGDKTMDVLRNSPNELYRIKGMSGKRIEVIKDAIANATAS	-0.275
HMVKNLRKLREELGLTQQRLAELTGISKSRIYSYESLDREPDIAGLITLADFFSVSIDYLVGK	-1.78
HMQFQVHEIKGKEYYIHVVEKGNTLYAISRMYSVPIETLKEENPRLNTTELTIGDRLLIPLDEVKRKNIE	-0.128
HMTKMTPNRQLVLSVLQSSGKPLSAYELLDRLREQGTQWQPPTAYRALDYLVEQGLAHYLQSIQKYV	-1.1
HMTSFDVMLKSAGANKLAVVKLVKELTGLGLKEAKDIVDAAPSKVKEGVSKEEAEELQKQLTGAGAEVEL	0.0299
HMHPEPDPVLFIDGKEYPYDKLSELDETRVQSMTILPKKSAVKKYGDKYANRSIMEITLKKEN	0.0957
HMEQISDEDTLRKMVNEVLDNNQTQLEQYKSGKTNLIGFFVGQTLKKSAGKANPSIVNKLVNEEIYI	0.00998
HMAEPLMTQIVEIEYADAEGLRENLEQFLTRLDEKTLLGSVLVDRHTNSLIIQAVRSDLERMLPLIETLDR	-0.731
HMETLYGQIVNDIMEKIESNAWPVGYVIPTESDFQKQYGVSRATVRNAILKLAHLGYLVRKKGSGTYVTRP	-0.975
HMISSRDAAVIGLVENIQRAQLNAIDESSGFKHLMETYNLESKEIALLVGKSRSYVSNSLRLSK	-0.0196
HMHLTRYLHTMIRAANLDDTLDFFVEKLGLIEAYRYSNEAGRFTLVFLSAPDDLESAQSRQAPLVEITYN	-0.107
HMGSFAADVGRMVRLGRAKRGISRRKLAADSGISERYLAQIEGGQGNPSVNVLKAIADAISVPVFELLPH	-1
